The text below walks through data of article PMC12250083 (International Journal of Molecular Sciences, 2025).

Numbering of substitutions follows the chain as printed.

Test [1] addresses T1, acetone carboxylase (XaAC) (Xanthobacter versatilis, UniProt Q8RM03+Q8RM04, Q8RM03:E89D).
T1 construct: gene acxA; recombinant from E. coli, His-NTA then Q-sepharose; 360 kDa α2β2γ2 heterohexamer with Mn(II); ATP/AMP site in beta subunit, Mn(II) site in alpha subunit; with Acetone carboxylase gamma subunit
In words: X-band EPR of active-site Mn(II). The settings on record: 10 mM AMP, 1 mM MgCl2; 50 mM Tris, pH 7.6, 150 mM NaCl; 12 K. It counts as binding.

In test [2] the target is T2, acetone carboxylase (XaAC) (Xanthobacter versatilis, UniProt Q8RM03+Q8RM04, Q8RM03:E89A).
T2 construct: gene acxA; recombinant from E. coli, His-NTA then Q-sepharose; 360 kDa α2β2γ2 heterohexamer with Mn(II); ATP/AMP site in beta subunit, Mn(II) site in alpha subunit; with Acetone carboxylase gamma subunit
T2 sequence (Q8RM03 whole entry E89A, one chain of several): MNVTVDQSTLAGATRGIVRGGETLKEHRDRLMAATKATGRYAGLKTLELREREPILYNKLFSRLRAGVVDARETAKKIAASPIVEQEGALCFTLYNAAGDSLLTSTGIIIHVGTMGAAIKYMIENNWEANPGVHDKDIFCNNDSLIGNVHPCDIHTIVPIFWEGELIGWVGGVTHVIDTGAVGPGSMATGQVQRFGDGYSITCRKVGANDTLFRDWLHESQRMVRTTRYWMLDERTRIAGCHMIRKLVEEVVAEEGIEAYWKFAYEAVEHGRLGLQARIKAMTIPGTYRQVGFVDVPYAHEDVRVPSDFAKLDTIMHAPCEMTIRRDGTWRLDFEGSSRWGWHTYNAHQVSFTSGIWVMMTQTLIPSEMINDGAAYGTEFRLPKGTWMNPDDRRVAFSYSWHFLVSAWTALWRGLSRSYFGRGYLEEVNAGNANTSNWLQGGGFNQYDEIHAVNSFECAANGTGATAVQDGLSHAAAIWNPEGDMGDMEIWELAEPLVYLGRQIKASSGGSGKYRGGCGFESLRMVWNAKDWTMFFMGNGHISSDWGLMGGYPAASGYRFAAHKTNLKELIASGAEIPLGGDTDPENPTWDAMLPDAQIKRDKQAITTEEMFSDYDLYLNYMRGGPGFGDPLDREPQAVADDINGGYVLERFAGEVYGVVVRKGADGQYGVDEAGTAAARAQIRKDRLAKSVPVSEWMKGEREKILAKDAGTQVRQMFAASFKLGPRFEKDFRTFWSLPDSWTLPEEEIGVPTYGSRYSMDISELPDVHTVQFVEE
As to the kind of experiment: differential scanning fluorimetry, SYPRO orange. In kind it is binding. The conditions noted are these: 10 mM AMP; 100 mM Tris, 100 mM KCl, pH 7.6; absolute Tm, not a shift. For orientation: DSF heats the sample and reads unfolding from a dye or from intrinsic fluorescence.

Test [3] has as its target T3, acetone carboxylase (XaAC) (Xanthobacter versatilis, UniProt Q8RM03+Q8RM04). As to the kind of experiment: differential scanning fluorimetry, SYPRO orange. In kind it is binding. On the set-up: gene acxA; recombinant from E. coli, His-NTA then Q-sepharose; 360 kDa α2β2γ2 heterohexamer with Mn(II); ATP/AMP site in beta subunit, Mn(II) site in alpha subunit; with Acetone carboxylase gamma subunit. The settings on record: 10 mM AMP; 100 mM Tris, 100 mM KCl, pH 7.6; absolute Tm, not a shift.

Test [4] deals with T3, acetone carboxylase (XaAC). The arrangement: gene acxA. The settings on record: only tested together with AMP (10 mM AMP-acetate), 1 mM MgCl2, pH 7.6; Mn(II) site.
For test [5], the target named is T4, Xanthobacter autotrophicus acetone carboxylase α subunit (Xanthobacter autotrophicus, UniProt Q8RM03 1-776).
T4 construct: acetone carboxylase alpha subunit, Xanthobacter autotrophicus; holds the Mn(II) site (H150, D153, H175, E89); A His-NTA column was used, so one subunit probably carries a His tag; also called XaAC α; AC alpha subunit; source: E. coli, purified as the complex (His-NTA, Q-sepharose)
T4 sequence: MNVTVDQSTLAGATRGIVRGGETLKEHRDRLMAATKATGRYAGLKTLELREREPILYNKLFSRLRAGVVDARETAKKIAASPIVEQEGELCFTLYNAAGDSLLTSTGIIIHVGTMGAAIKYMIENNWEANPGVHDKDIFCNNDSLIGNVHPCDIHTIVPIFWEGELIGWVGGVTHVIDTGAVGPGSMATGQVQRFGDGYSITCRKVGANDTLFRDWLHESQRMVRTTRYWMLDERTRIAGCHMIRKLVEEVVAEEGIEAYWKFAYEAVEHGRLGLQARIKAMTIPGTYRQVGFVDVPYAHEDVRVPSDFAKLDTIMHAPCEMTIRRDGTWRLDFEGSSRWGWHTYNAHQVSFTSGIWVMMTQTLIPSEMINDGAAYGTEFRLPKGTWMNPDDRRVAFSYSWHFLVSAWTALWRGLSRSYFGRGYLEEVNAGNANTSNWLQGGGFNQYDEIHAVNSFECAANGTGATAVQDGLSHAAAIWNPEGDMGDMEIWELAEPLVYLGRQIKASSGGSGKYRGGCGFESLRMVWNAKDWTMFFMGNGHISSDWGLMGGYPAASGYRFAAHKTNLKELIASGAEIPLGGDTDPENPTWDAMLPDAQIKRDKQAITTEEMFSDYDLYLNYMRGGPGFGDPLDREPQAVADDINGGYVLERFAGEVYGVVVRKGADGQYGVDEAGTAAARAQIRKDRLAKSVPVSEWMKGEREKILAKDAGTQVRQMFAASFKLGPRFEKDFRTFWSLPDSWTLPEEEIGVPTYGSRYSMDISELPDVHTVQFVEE
In words: SEC + native gel or EMSA; complexes co-purified from E. coli lysate (His-NTA, then Q-sepharose), stored in 50 mM Tris pH 7.6, 150 mM NaCl, 10% glycerol, then tested by size exclusion chromatography and native gel for integrity. The settings on record: both partners purified. In general terms: A gel shift assay detects complexes by their altered migration in electrophoresis.

The target in test [6] is T5, Xanthobacter autotrophicus acetone carboxylase α subunit, αE89A variant (Xanthobacter autotrophicus, UniProt Q8RM03 1-776, αE89A).
T5 construct: acetone carboxylase alpha subunit, Xanthobacter autotrophicus, glutamate 89 substituted by alanine; The PDB entries are of the wild-type parent; also called E89A XaAC; E89A AC; source: E. coli, purified as the complex (His-NTA, Q-sepharose)
T5 sequence: T4 sequence with E89A
The description is as above. The conditions noted are these: both partners purified.

Test [7] concerns the target T6, Xanthobacter autotrophicus acetone carboxylase α subunit, αE89D variant (Xanthobacter autotrophicus, UniProt Q8RM03 1-776, αE89D).
T6 construct: acetone carboxylase alpha subunit, Xanthobacter autotrophicus, glutamate 89 substituted by aspartate; The PDB entries are of the wild-type parent; also called E89D XaAC; E89D AC; source: E. coli, purified as the complex (His-NTA, Q-sepharose)
T6 sequence: T4 sequence with E89D
Described as above. The settings on record: both partners purified.

T1 sequence (Q8RM03 whole entry E89D, one chain of several): as the sequence (Q8RM03 whole entry E89A, one chain of several) above, with A89D counted along it

Turning to `Nc1ncnc2c1ncn2[C@@H]1O[C@H](COP(=O)(O)O)[C@@H](O)[C@H]1O` [AMP], the “X-band EPR of active-site Mn(II)” value in test [1] was “αE89D and the WT AC respond similarly to AMP binding”. For the same molecule, the Tm is 76 ± 0.4 °C in test [2] and 76.5 ± 0.5 °C in test [3].

On to `CC(=O)O` [acetate], for which the “peptide-level and intact-protein HDX-MS” value in test [4] was “when AMP and acetate were both present, seven of the eight peptides displayed opposite exchange patterns”.

B1: Xanthobacter autotrophicus acetone carboxylase β subunit (enzyme)
chain: MNVPVGHLRNVQVLGIDAGGTMTDTFFVDQDGDFVVGKAQSTPQNEALGLIASSEDGLANWGMSLHEALAQLQTGVYSGTAMLNRVVQRKGLKCGLIVNRGMEDFHRMGRAVQSHLGYAYEDRIHLNTHRYDPPLVPRHLTRGVVERTDMIGTQVIPLREDTARDAARDLIAADAEGIVISLLHSYKNPENERRVRDIVLEEVEKSGKKIPVFASADYYPVRKETHRTNTTILEGYAAEPSRQTLSKISNAFKERGTKFDFRVMATHGGTISWKAKELARTIVSGPIGGVIGAKYLGEVLGYKNIACSDIGGTSFDVALITQGEMTIKNDPDMARLVLSLPLVAMDSVGAGAGSFIRLDPYTRAIKLGPDSAGYRVGVCWKESGIETVTISDCHMVLGYLNPDNFLGGAVKLDRQRSVDAIKAQIADPLGLSVEDAAAGVIELLDSDLRDYLRSMISGKGYSPASFVCFSYGGAGPVHTYGYTEGLGFEDVIVPAWAAGFSAFGCAAADFEYRYDKSLDINMPTETPDTDKEKAAATLQAAWEELTKNVLEEFKLNGYSADQVTLQPGYRMQYRGQLNDLEIESPLAQAHTAADWDQLTDAFNATYGRVYAASARSPELGYSVTGAIMRGMVPIPKPKIPKEPEEGETPPESAKIGTRKFYRKKRWVDAQLYHMESLRPGNRVMGPAVIESDATTFVVPDGFETWLDGHRLFHLREV
notes: acetone carboxylase beta subunit, Xanthobacter autotrophicus; also called XaAC β; AC beta subunit; source: E. coli, purified as the complex (His-NTA, Q-sepharose)
For the molecule B1, the binding result in test [5], in test [6] and in test [7] was “binds” throughout.

B2: Xanthobacter autotrophicus acetone carboxylase γ subunit (enzyme)
chain: MAYTRSKIVDLVDGKIDPDTLHQMLSTPKDPERFVTYVEILQERMPWDDKIILPLGPKLFIVQQKVSKKWTVRCECGHDFCDWKDNWKLSARVHVRDTPQKMEEIYPRLMAPTPSWQVIREYFCPECGTLHDVEAPTPWYPVIHDFSPDIEGFYQEWLGLPVPERADA
notes: acetone carboxylase gamma subunit, Xanthobacter autotrophicus; also called XaAC γ; AC gamma subunit; source: E. coli, purified as the complex (His-NTA, Q-sepharose)
With B2, the binding result in test [5], in test [6] and in test [7] was “binds” in each case.
